The values that follow come from article PMC10391570 (Cell Reports Methods, 2023).

Test in all cases: ELISA
In general terms: ELISA stands for enzyme-linked immunosorbent assay.

Test [1] has as its target Der f1 (Dermatophagoides farinae, UniProt P16311, biotin (Biotin Conjugation Kit, Lightning-Link)).
Test [2] concerns the target Fel d1 (Felis catus, UniProt P30438;P30440).
Test [3] concerns the target Der p2 (Dermatophagoides pteronyssinus, UniProt P49278, biotin (Biotin Conjugation Kit, Lightning-Link)).
The target in test [4] is Ole e1 (Olea europaea, UniProt P19963, biotin (Biotin Conjugation Kit, Lightning-Link)).
Test [5] concerns the target Der p1 (Dermatophagoides pteronyssinus, UniProt P08176, biotin (Biotin Conjugation Kit, Lightning-Link)).

Der p2, sequence (P49278 18-146): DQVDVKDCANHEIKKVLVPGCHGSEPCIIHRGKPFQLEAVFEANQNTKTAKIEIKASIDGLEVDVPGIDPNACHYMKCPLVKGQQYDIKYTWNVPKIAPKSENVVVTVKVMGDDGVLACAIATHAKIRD
Der f1, sequence (P16311 99-321): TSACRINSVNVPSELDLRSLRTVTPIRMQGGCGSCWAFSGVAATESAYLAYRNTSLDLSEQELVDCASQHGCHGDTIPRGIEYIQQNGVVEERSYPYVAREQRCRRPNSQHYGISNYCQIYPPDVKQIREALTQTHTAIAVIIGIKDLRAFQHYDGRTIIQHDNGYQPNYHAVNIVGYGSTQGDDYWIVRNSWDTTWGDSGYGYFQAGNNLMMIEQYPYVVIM
Fel d1, sequence (P30438 23-92, chain 1 of 2): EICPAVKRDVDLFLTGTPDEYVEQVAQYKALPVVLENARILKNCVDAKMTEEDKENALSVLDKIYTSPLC
Fel d1, sequence (P30440 18-109, chain 2 of 2): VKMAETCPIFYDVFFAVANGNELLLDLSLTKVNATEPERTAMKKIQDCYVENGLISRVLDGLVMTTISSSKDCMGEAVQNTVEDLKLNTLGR
Der p1, sequence (P08176 99-320): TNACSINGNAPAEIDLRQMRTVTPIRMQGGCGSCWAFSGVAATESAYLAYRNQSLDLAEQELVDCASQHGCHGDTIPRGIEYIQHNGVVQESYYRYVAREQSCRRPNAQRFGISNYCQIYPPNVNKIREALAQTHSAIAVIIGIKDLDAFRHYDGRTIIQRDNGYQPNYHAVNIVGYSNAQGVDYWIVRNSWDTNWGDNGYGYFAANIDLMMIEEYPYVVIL

B1: IgE monoclonal antibody mAb12_2 (antibody, V domains shown)
VH: QAYLQQSGAELVRPGASVKMSCKASGYTFISYNMHWVKQTRRQGLEWIGAIYPGNGDTSYNQKFKGKATLTVDKSSSTAYMQLSSLTSEDSAVYFCARWDYYGSSYGAYWGQGTLVTVSA
VL: DIQMTQSPASLSVSVGETVTITCRASENIYSNLAWYQQKQGKSPQLLVYAATNLADGVPSRFSGSGSGTQYSLKINSLQSEDFGSYYCQHFWGTPWTFGGGTKLEIK
Take B1: the binding result is reported as “binds” in test [1]; “no binding” in test [2]; “binds” in test [3]; “binds” in test [4]; “binds” in test [5].

B2: IgE mAb 8_2 (antibody, V domains shown)
VH: QVLLKESGPGLVAPSQSLSITCTVSGFSLTSYGVSWVRQPPGKGLEWLGVIWGDGNTDYHSALISRLSIRKDNSKSQVFLKLNSLQTDDTATYYCAIGSPFAYWGQGTLVTVSA
VL: DVLMTQTPLSLPVSLGDQVSISCRSSQNIVHSTGNTYLEWYLQKPGQSPKLLIFKVSNRLSGVPDRFSGSGSGTDFTLNISRVEAADLGIYSCFQGSHVPFTFGSGTKLEIK
As for B2, the binding result in test [3] is given as “binds”.

B3: IgE mAb 21_2 (antibody, V domains shown)
VH: QVQLQQSGPELVKPGASVKISCKAPGNAFSYSWMNWVKQRPGKGLEWVGRIYPGDGDTNYNGKFMGKATLTADKSSNTAYIQLSSLTSEDSAVYFCARSGGGTLYWYFDVWGTGTTVTVSS
VL: DIVMTQSPSSLALSVGQKVTMNCRSSQSLLNSFNQKNYLAWFQQKPGQSPRLLIYFASTRESGVPDRFIGSGSGTDFTLTISSVQAEDLADYFCQQHYNTPLTFGAGTTLELK
Regarding B3, the binding result in test [3] is recorded as “binds”.

B4: IgE mAb1_2 (antibody, V domains shown)
VH: QIQLVQSGPELKKPGETVKISCKASGYTFTTYGMSWVKQAPGKGLKWMGWINTYSGVPTYADDFKGRFVFSLETSASTAYLQINNLKNEDTATYFCARAYYYGSSYLIWYFDVWGTGTTVTVSS
VL: NIVLTQSPASLAVSLGQRATISCRASESVDSYGNSFMHWYQQKPGQPPKLLIYLASNLESGVPARFSGSGSRTDFTLTIDPVEADDAATYYCQQNNEDPYTFGGGTKLEIK
On to B4, for which, in test [1], the binding result was “binds”.
